Changes are numbered by the printed parent chain. Each block holds one binder with its values, some of them ahead of it.
Columns and labels:
[1] = target: T1, recombinant His-Strep tagged human Tyro3 extracellular domain (human, UniProt Q06418 41-429); assay: BLI (Octet K2), 1:1 global fit; analyte concentration of this kobs not given
T1 construct: also called hTyro3 ECD; full Tyro3 ECD
T1 sequence: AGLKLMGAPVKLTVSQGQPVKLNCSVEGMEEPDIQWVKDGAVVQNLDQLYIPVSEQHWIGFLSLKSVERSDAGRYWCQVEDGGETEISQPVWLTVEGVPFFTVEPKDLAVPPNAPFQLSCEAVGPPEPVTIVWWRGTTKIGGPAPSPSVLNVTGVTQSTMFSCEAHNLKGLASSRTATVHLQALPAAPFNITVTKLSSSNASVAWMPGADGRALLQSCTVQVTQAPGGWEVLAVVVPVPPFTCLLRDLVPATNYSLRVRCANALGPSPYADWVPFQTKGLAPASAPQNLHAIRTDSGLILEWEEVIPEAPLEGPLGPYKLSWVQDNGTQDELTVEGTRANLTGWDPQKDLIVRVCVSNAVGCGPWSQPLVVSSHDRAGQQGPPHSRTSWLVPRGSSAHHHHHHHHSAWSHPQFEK
Method: (§1) Affinity determinations were performed using biolayer interferometry on an Octet K2 instrument (Pall/ForteBio) equipped with anti-Human Kinetics (AHC) disposable fiber-optic biosensor tips. All experiments were conducted at 30° C. in the recommended Fortebio running buffer (PBS with 0.1% (w/v) bovine serum albumin (BSA) and 0.02% (v/v) Tween_20). This buffer was also used for dilution of ligand (here the antibody) and of the analyte (here the extra cellular domain of human Tyro3 protein). Samples in a 96-well microplates (No. Black polypropylene low binding plates, Greiner Bio-One, Frickenhausen, Germany) were agitated at 1000 rpm. […] Between measurements, the anti-human Tyro3 biosensor surfaces were regenerated by exposing them to 3 cycles of 5 sec in 10 mM glycine, pH 1.5, followed by 5 sec in PBS. Association phase was measured for 300 seconds, dissociation phase depending on the interaction for 300 seconds depending on dissociation step. All measurements were corrected for baseline drift using the double reference substraction, that is to say by subtracting a control sensor without ligand exposed to each concentration of the extra cellular domain of human Tyro3 protein and a reference well with ligand submitted to running buffer only. Affinity, association (kon) and dissociation rate constants (koff) for each antibody were calculated applying a 1:1 interaction model fitting global, Rmax linked by sensor) on the ForteBio data analysis software 9.0.

[2] = target: T1, recombinant His-Strep tagged human …; assay: BLI (Octet K2), IgG on AHC tips, hTyro3 ECD analyte, 1:1 global fit; kdis(1/s); kdis Error 6,46E-05
Method: as §1, with “All measurements were corrected for baseline drift using the double reference substraction, that is to say by subtracting a control sensor without ligand exposed to each concentration of the extra cellular domain of human Tyro3 protein and a reference well with ligand submitted to running buffer only.” left out

[3] = target: T1, recombinant His-Strep tagged human …; assay: BLI (Octet K2), IgG on AHC tips, hTyro3 ECD analyte, 1:1 global fit; kon Error 1,63E+03
Method: as §1, with “All measurements were corrected for baseline drift using the double reference substraction, that is to say by subtracting a control sensor without ligand exposed to each concentration of the extra cellular domain of human Tyro3 protein and a reference well with ligand submitted to running buffer only.” left out

[4] = target: T1, recombinant His-Strep tagged human …; assay: BLI (Octet K2), IgG on AHC tips, hTyro3 ECD analyte, 1:1 global fit; KD Error 9,68E-10
Method: as §1, with “All measurements were corrected for baseline drift using the double reference substraction, that is to say by subtracting a control sensor without ligand exposed to each concentration of the extra cellular domain of human Tyro3 protein and a reference well with ligand submitted to running buffer only.” left out

[5] = target: T2, cynomolgus Tyro3 ECD, His-Strep tagged; assay: sandwich ELISA, Strep-tagged cynomolgus Tyro3 ECD captured on StrepMAB plate, IgG 3-fold from 3 µg/mL, anti-human IgG1-HRP
T2 construct: also called cyno TYRO3 ECD 8hisstrep
T2 extracellular domain: T1 sequence with V67A, I191V, A309G, R376H
Method: [The procedure below names another species; the source lists this species under the same test.] (§2) A double sandwich ELISA was developed. This assay consisted in measuring the binding of the anti-Tyro3 antibodies to be tested on immobilized strep-tagged entire human Tyro3 ECD captured directly on ELISA plate pre-coated with an anti-strep mAb (StrepMAB-Immo coated microplates from IBA biotech). Briefly, the 96 wells of StrepMAB-Immo coated microplate were washed three times with 300 μL of the PBS Tween 0.2% (referred as ELISA washing solution). The capture of an excess of purified strep tagged hTyro3 ECD protein was achieved by a one hour incubation at room temperature. In these experiments, 3 μg of purified protein diluted in PBS, BSA 1% (referred as ELISA diluent solution) were immobilized per well. The wells were washed three times with 300 μL of the washing solution. The non-specific binding sites on the well surface were blocked during 60 min at room temperature with 200 μL/well of blocking solution (PBS, BSA 3%). The wells were washed five times with 300 μL of the washing solution. Then, 100 μl (in duplicates) of the different concentrations of anti-Tyro3 antibodies to be tested diluted in ELISA diluent solution, were added per well and allowed to incubate during 1 hour at room temperature. An Irrelevant control IgG2656 was also added in this experiment. For anti-Tyro3 antibodies in the ScFv format, experiments were performed with 6 concentrations in duplicates (FIG. 3A). For anti-Tyro3 antibodies in the IgG format, experiments were performed with 9 concentrations in duplicates (FIG. 3B). […] For IgGs experiments, starting concentration for first dilution was 3 μg/ml and then dilutions of 3 fold in the ELISA diluent solution were performed. The wells were washed five times with 300 μL of the washing solution. […] The mix was allowed to incubated 60 min at room temperature.

[6] = target: T1, recombinant His-Strep tagged human …; assay: sandwich ELISA, Strep-tagged hTyro3 ECD captured on StrepMAB plate, IgG 3-fold from 3 µg/mL, anti-human IgG1-HRP
Method: as §2

[7] = target: T3, recombinant human Tyro3 on transfected HEK293 cells (human, UniProt Q06418); assay: flow cytometry, 1 µg IgG per 5E5 live HEK293 cells, PE anti-human lambda
T3 construct: membrane receptor on HEK293 cells; untransfected HEK293 cells (endogenous Tyro3) serve as comparison; also called Tyro3-transfected cells
T3 sequence (receptor, looked up): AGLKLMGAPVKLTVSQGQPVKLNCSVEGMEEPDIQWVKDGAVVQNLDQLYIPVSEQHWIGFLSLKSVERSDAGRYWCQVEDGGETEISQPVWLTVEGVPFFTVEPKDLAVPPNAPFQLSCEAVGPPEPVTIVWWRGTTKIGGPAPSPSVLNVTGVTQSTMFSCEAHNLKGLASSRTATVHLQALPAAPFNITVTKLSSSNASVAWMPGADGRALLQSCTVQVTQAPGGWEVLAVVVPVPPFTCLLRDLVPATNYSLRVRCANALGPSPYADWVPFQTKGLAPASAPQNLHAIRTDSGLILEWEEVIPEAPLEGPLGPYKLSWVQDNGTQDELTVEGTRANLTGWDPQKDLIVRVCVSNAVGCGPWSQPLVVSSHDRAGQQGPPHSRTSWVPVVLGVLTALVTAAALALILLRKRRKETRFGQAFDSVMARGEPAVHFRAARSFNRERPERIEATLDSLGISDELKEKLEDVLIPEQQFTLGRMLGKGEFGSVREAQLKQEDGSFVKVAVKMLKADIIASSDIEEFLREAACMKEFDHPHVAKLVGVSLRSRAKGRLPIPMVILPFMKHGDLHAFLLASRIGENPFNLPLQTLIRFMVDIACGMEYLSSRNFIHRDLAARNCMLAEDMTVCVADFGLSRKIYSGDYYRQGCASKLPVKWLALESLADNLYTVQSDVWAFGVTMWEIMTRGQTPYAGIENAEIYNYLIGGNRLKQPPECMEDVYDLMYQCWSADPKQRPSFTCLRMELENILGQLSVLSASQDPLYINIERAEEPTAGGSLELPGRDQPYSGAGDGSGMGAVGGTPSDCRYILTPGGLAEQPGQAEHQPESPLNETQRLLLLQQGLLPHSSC
Method: FIG. 9: Binding of anti-Tyro3 IgGs in living cells. HEK293 cells transfected to express recombinant human Tyro3 and HEK293 untransfected cells were stained with the Live-Dead NIR dye and either incubated with the TYRO 3-specific MAB859 monoclonal antibody, its isotype control (upper panels) or to individual anti-Tyro3 IgG (middle and bottom panels). IgG isotype control is IGX2656. […] Data were acquired using an ARIA III flow cytometer (Becton Dickinson) and analyzed using the Kaluza software (Beckman Coulter). Histograms shown are restricted to live cells that show a characteristic size and granulometry of HEK293 cells. Anti-Tyro3 IgG Tyro3-specific binding is shown by fluorescence intensity increase of Tyro3-transfected cells (black line) compared to untransfected cells (grey line).
To determine the individual IgG ability to further bind Tyro3-transfected cells than untransfected cells, 5^E5 untransfected and Tyro3-transfected cells were exposed to Live-Dead NIR dye (Life Technologies, #L10119) and 1 μg of each IgX in PBS for 30 minutes at 4° C. […] Cells were washed and PE fluorescence of at least 10,000 live cells was immediately recorded on an ARIA III flow cytometer (Beckton Dickinson) (middle and bottom panels of FIG. 9). IgG ability to bind overexpressed Tyro3 was determined with overlay histograms showing PE expression profile of untransfected and Tyro3-transfected cell. […]

[8] = target: T1, recombinant His-Strep tagged human …; assay: BLI (Octet K2), IgG on AHC tips, hTyro3 ECD analyte, 1:1 global fit; kon Error 1,05E+03
Method: as §1, with “All measurements were corrected for baseline drift using the double reference substraction, that is to say by subtracting a control sensor without ligand exposed to each concentration of the extra cellular domain of human Tyro3 protein and a reference well with ligand submitted to running buffer only.” left out

[9] = target: T1, recombinant His-Strep tagged human …; assay: BLI (Octet K2), IgG on AHC tips, hTyro3 ECD analyte, 1:1 global fit; KD Error 1,47E-09
Method: as §1, with “All measurements were corrected for baseline drift using the double reference substraction, that is to say by subtracting a control sensor without ligand exposed to each concentration of the extra cellular domain of human Tyro3 protein and a reference well with ligand submitted to running buffer only.” left out

[10] = target: T1, recombinant His-Strep tagged human …; assay: BLI (Octet K2), IgG on AHC tips, hTyro3 ECD analyte, 1:1 global fit; kdis(1/s); kdis Error 9,54E-05
Method: as §1, with “All measurements were corrected for baseline drift using the double reference substraction, that is to say by subtracting a control sensor without ligand exposed to each concentration of the extra cellular domain of human Tyro3 protein and a reference well with ligand submitted to running buffer only.” left out

[11] = target: T1, recombinant His-Strep tagged human …; assay: BLI (Octet K2), IgG on AHC tips, hTyro3 ECD analyte, 1:1 global fit; kon Error 9,23E+02
Method: as §1, with “All measurements were corrected for baseline drift using the double reference substraction, that is to say by subtracting a control sensor without ligand exposed to each concentration of the extra cellular domain of human Tyro3 protein and a reference well with ligand submitted to running buffer only.” left out

[12] = target: T1, recombinant His-Strep tagged human …; assay: BLI (Octet K2), IgG on AHC tips, hTyro3 ECD analyte, 1:1 global fit; KD Error 2,48E-09
Method: as §1, with “All measurements were corrected for baseline drift using the double reference substraction, that is to say by subtracting a control sensor without ligand exposed to each concentration of the extra cellular domain of human Tyro3 protein and a reference well with ligand submitted to running buffer only.” left out

[13] = target: T1, recombinant His-Strep tagged human …; assay: BLI (Octet K2), IgG on AHC tips, hTyro3 ECD analyte, 1:1 global fit; kdis(1/s); kdis Error 1,11E-04
Method: as §1, with “All measurements were corrected for baseline drift using the double reference substraction, that is to say by subtracting a control sensor without ligand exposed to each concentration of the extra cellular domain of human Tyro3 protein and a reference well with ligand submitted to running buffer only.” left out

- kobs [1]: 0.0145 s⁻¹
- koff [2]: 0.00704 s⁻¹
- kon [3]: 120000 M⁻¹ s⁻¹
- Kd [4]: 58.9 nM
- binding result [5]: binds
B1: IgG2410 (antibody, V domains shown)
VH: EVQLVQSGADVKKPGASLTISCQASGYTFTDYWISWVRQKPGKGLEWMGQIVPRASRTNYGPSFQGHVTISADRSTATAYLQWRSLEASDTAMYYCVRPYFQTSGGTIPEYYQHWGPGTLVTVSS
VL: SYELTQPPSVSVSPGQTARITCSGDALPKKYAYWYQQKSGQAPVLVIYEDEKRASGIPERFSGSSSGTMATLTISGAQVEDEADYYCYSQERNGNYAVFGGGTKLTVL
notes: also called IGX2410

- binding result [6]: binds
- binding result [7]: binds
- binding result [5]: binds
B2: IgG2717 (antibody, V domains shown)
VH: EVQLVQSGADVKKPGASLTISCQASGYTFTDYWISWVRQKPGKGLEWMGEIFLPPSTTVYGPSFQGHVTISADRSTATAYLQWRSLEASDTAMYYCVRQTRLTSGGTIPEYYQHWGPGTLVTVSS
VL: B1 VL with E51N, A54G, Q90K, E91S, R92P, N93E, A97M
notes: also called IGX2717

- kobs [1]: 0.0342 s⁻¹
- kon [8]: 97300 M⁻¹ s⁻¹
- EC50 (read off the curve) [6]: ~0.02 µg/mL
- EC50 (read off the curve) [5]: ~0.02 µg/mL
- Kd [9]: 101 nM
- koff [10]: 0.00987 s⁻¹
B3: IgG2413 (antibody, V domains shown)
VH: EVQLVQSGADVKKPGASLTISCQASGYTFTDYWISWVRQKPGKGLEWMGRIHTYQSSTRYGPSFQGHVTISADRSTATAYLQWRSLEASDTAMYYCVRHHSTTTANPYSSWGPGTLVTVSS
VL: B1 VL with E51D, A54L, Q90T, R92I
notes: also called IGX2413

- kobs [1]: 0.0175 s⁻¹
- kon [11]: 67400 M⁻¹ s⁻¹
- Kd [12]: 135 nM
- koff [13]: 0.0091 s⁻¹
- binding result [5]: binds
B4: IgG2412 (antibody, V domains shown)
VH: B1 VH with Q50R, V52R, R54L, A55L, R57H, N59M, P99S, Y100W, F101L, Q102A
VL: B1 VL with E51A, A54V, Q90A, E91S, R92A, A97R
notes: also called IGX2412

Reference: patent publication US20180105596A1 (ELSALYS BIOTECH, published 2018)
